Data as given in patent US20240294594A1 (CYTUNE PHARMA, published 2024).
Each block holds one binder with its values, some of them ahead of it.

Columns and labels:
[1] = target: T1, IL-2/IL-15Rβγ (on cells) (UniProt P14784 27-551; P31785 23-369, limits assumed); test: cell-based or functional assay
T1 sequence (looked up) 1: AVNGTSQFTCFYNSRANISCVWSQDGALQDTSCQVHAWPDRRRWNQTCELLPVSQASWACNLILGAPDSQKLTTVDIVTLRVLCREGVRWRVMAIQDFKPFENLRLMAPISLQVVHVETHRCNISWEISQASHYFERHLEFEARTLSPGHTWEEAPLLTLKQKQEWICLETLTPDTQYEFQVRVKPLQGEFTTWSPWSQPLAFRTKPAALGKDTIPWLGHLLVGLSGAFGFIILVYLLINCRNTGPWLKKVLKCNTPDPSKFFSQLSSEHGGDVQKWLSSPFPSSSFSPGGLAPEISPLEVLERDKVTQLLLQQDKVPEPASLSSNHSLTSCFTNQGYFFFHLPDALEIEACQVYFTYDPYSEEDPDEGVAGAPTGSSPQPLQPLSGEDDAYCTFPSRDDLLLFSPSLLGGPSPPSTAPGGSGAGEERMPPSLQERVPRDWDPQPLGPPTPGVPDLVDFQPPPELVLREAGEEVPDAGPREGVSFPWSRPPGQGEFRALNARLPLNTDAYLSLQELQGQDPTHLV
T1 sequence (looked up) 2: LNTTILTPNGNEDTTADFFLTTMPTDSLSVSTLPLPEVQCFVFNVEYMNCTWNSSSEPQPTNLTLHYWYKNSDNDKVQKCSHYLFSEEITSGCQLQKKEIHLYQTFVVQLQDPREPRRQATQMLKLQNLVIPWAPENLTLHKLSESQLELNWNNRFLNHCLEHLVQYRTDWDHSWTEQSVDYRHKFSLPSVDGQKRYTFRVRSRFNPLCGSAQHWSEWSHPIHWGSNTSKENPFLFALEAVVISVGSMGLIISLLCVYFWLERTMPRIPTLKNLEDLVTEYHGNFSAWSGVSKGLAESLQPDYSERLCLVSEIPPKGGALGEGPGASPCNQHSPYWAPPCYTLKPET

[2] = target: T1, IL-2/IL-15Rβγ (on cells); test: cell-based or functional assay; remark: listed apart in the source
[3] = target: T2, FcγRIIIa V158 (human, UniProt P08637 17-208, limits assumed); test: SPR (Biacore 8K), ratio of 1/Kd values
T2 construct: also called hFcγRIIIaV158; CD16a V158
T2 sequence (P08637 17-208 F176V limits assumed): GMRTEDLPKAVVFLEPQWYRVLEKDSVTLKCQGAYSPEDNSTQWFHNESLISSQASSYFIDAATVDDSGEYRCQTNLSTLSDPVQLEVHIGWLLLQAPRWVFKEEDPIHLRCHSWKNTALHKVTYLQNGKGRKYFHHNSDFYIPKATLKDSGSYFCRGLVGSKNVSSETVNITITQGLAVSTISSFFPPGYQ
Protocol: (§1) SPR experiments were performed on a Biacore 8K (Cytiva, Chicago, IL, USA), using CM5 sensor chips (Cytiva) with an immobilization using THE His tag antibodies (Genscript). FcγRIIIa V158, FcγRIIIa F158 or FcγRIIb protein were used for capture with a contact time of 30 sec at a flow rate of […] in a 1×HBS-EP+ running buffer. Association/dissociation rates were measured for each tested immunocytokine at a flow rate of 30 μl/min with concentration serial dilution in a suitable range with an association time/dissociation time of 300 s/300 s except for constructs with DLE and DE with and without afucosylation, where association/dissociation time of 120 s/1200 s was applied.

[4] = target: T3, FcγRIIIa F158 (human, UniProt P08637 17-208, limits assumed); test: SPR (Biacore 8K), ratio of 1/Kd values
T3 construct: also called hFcγRIIIaF158; CD16a F158
T3 sequence (P08637 17-208 limits assumed): as the sequence (P08637 17-208 F176V limits assumed) above, with V160F counted along it
Protocol: as §1

[5] = target: T2, FcγRIIIa V158; test: SPR (Biacore 8K), receptor captured via anti-His antibody
Protocol: as §1

[6] = target: T3, FcγRIIIa F158; test: as above
Protocol: as §1

[7] = target: T4, FcγRIIb (UniProt P31994 46-217, limits assumed); test: as above
T4 construct: also called FcgRIIb
T4 sequence (looked up): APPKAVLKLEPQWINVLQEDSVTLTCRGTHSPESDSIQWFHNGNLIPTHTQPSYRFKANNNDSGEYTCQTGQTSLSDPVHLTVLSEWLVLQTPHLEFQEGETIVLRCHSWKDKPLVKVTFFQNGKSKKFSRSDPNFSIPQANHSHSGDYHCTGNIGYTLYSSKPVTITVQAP
Protocol: as §1

[8] = target: PD-1 (on PD-1 Effector Cells of the Promega PD-1/PD-L1 Blockade Bioassay) (UniProt Q15116 25-288, limits assumed); test: cell-based or functional assay
PD-1 (on PD-1 Effector Cells of the Promega PD-1/PD-L1 Blockade Bioassay), sequence (Q15116 25-288 limits assumed): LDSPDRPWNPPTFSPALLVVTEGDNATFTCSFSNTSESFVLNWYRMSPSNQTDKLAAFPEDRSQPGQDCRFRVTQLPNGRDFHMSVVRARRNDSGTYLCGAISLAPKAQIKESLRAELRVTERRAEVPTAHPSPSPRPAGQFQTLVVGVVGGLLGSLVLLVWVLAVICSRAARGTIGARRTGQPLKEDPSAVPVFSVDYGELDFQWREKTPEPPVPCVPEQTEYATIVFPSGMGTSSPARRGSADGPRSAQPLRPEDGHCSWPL

Potency in vitro (kit225) [1]: -15700 x (fold against RLI2 wt)
B1: RLI2 mutein D30N/E64Q/N65D (NQD) of Table 13 (ligand)
chain: ITCPPPMSVEHADIWVKSYSLYSRERYICNSGFKRKAGTSSLTECVLNKATNVAHWTTPSLKCIRDPALVHQRPAPPSGGSGGGGSGGGSGGGGSGGNWVNVISDLKKIEDLIQSMHIDATLYTESNVHPSCKVTAMKCFLLELQVISLESGDASIHDTVQDLIILANNSLSSNGNVTESGCKECEELEEKNIKEFLQSFVHIVQMFINTS

EC50 kit225 cells [pM] [2]: 106000 pM
B2: RLI DANAQD (ligand)
chain: ITCPPPMSVEHADIWVKSYSLYSRERYICNSGFKRKAGTSSLTECVLNKATNVAHWTTPSLKCIRDPALVHQRPAPPSGGSGGGGSGGGSGGGGSGGNWVNVISDLKKIEDLIQSMHIDATLYTESDVHPSCKVTAMKCFLLELQVISLESGDASIHATVEALIILANNSLSSNGNVTESGCKECEELEEKNIKEFLDSFVHIVQMFINTS

A/I (V158), affinity towards FcγRIIIa over affinity towards FcγRIIb [3]: 13700 ratio | A/I (F158), affinity towards FcγRIIIa over affinity towards FcγRIIb [4]: 9370 ratio | Kd [5]: 0.162 nM | Kd [6]: 0.237 nM | Kd [7]: 2220 nM
B3: hCl1a DLE-RLI DANA afuc (other)
heavy 1: QVQLVQSGAEVKKPGASVKVSCKASGYTFTDYAMHWVRQAPGQRLEWMGWINTYTGKPTYAQKFQGRVTITRDTSASTAYMELSSLRSEDTAVYYCARAVFYGYTMDAWGQGTLVTVSSASTKGPSVFPLAPSSKSTSGGTAALGCLVKDYFPEPVTVSWNSGALTSGVHTFPAVLQSSGLYSLSSVVTVPSSSLGTQTYICNVNHKPSNTKVDKKVEPKSCDKTHTCPPCPAPELLGGPDVFLFPPKPKDTLMISRTPEVTCVVVDVSHEDPEVKFNWYVDGVEVHNAKTKPREEQYNSTYRVVSVLTVLHQDWLNGKEYKCKVSNKALPLPEEKTISKAKGQPREPQVYTLPPSRDELTKNQVSLWCLVKGFYPSDIAVEWESNGQPENNYKTTPPVLDSDGSFFLYSKLTVDKSRWQQGNVFSCSVMHEALHNHYTQKSLSLSPGITCPPPMSVEHADIWVKSYSLYSRERYICNSGFKRKAGTSSLTECVLNKATNVAHWTTPSLKCIRDPALVHQRPAPPSGGSGGGGSGGGSGGGGSGGNWVNVISDLKKIEDLIQSMHIDATLYTESDVHPSCKVTAMKCFLLELQVISLESGDASIHATVEALIILANNSLSSNAQVTESGCKECEELEEKNIKEFLQSFVHIVQMFINTS
heavy 2: QVQLVQSGAEVKKPGASVKVSCKASGYTFTDYAMHWVRQAPGQRLEWMGWINTYTGKPTYAQKFQGRVTITRDTSASTAYMELSSLRSEDTAVYYCARAVFYGYTMDAWGQGTLVTVSSASTKGPSVFPLAPSSKSTSGGTAALGCLVKDYFPEPVTVSWNSGALTSGVHTFPAVLQSSGLYSLSSVVTVPSSSLGTQTYICNVNHKPSNTKVDKKVEPKSCDKTHTCPPCPAPELLGGPDVFLFPPKPKDTLMISRTPEVTCVVVDVSHEDPEVKFNWYVDGVEVHNAKTKPREEQYNSTYRVVSVLTVLHQDWLNGKEYKCKVSNKALPLPEEKTISKAKGQPREPQVYTLPPSRDELTKNQVSLSCAVKGFYPSDIAVEWESNGQPENNYKTTPPVLDSDGSFFLVSKLTVDKSRWQQGNVFSCSVMHEALHNHYTQKSLSLSPG
light: DIQMTQSPSSLSASVGDRVTITCRASEDIYSNLAWYQQKPGKAPKLLIFSVKRLQDGVPSRFSGSGSGTDFTLTISSLQPEDFATYYCLQGSNFPLTFGQGTKVEIKRTVAAPSVFIFPPSDEQLKSGTASVVCLLNNFYPREAKVQWKVDNALQSGNSQESVTEQDSKDSTYSLSSTLTLSKADYEKHKVYACEVTHQGLSSPVTKSFNRGEC
modifications: afucosylated Fc N-glycan
notes: Afucosylated form of hCl1a DLE-RLI DANA

EC50 [pM], PD-1/PD-L1 Blockade Bioassay (Promega) [8]: 1440 pM
B4: PEM LE/YTE-RLI NA x1 (other)
heavy 1: QVQLVQSGVEVKKPGASVKVSCKASGYTFTNYYMYWVRQAPGQGLEWMGGINPSNGGTNFNEKFKNRVTLTTDSSTTTAYMELKSLQFDDTAVYYCARRDYRFDMGFDYWGQGTTVTVSSASTKGPSVFPLAPCSRSTSESTAALGCLVKDYFPEPVTVSWNSGALTSGVHTFPAVLQSSGLYSLSSVVTVPSSSLGTKTYTCNVDHKPSNTKVDKRVESKYGPPCPPCPAPEFEGGPSVFLFPPKPKDTLYITREPEVTCVVVDVSQEDPEVQFNWYVDGVEVHNAKTKPREEQFNSTYRVVSVLTVLHQDWLNGKEYKCKVSNKGLPSSIEKTISKAKGQPREPQVYTLPPSQEEMTKNQVSLWCLVKGFYPSDIAVEWESNGQPENNYKTTPPVLDSDGSFFLYSRLTVDKSRWQEGNVFSCSVMHEALHNHYTQKSLSLSLGITCPPPMSVEHADIWVKSYSLYSRERYICNSGFKRKAGTSSLTECVLNKATNVAHWTTPSLKCIRDPALVHQRPAPPSGGSGGGGSGGGSGGGGSGGNWVNVISDLKKIEDLIQSMHIDATLYTESDVHPSCKVTAMKCFLLELQVISLESGDASIHDTVEALIILANNSLSSNAQVTESGCKECEELEEKNIKEFLQSFVHIVQMFINTS
heavy 2: QVQLVQSGVEVKKPGASVKVSCKASGYTFTNYYMYWVRQAPGQGLEWMGGINPSNGGTNFNEKFKNRVTLTTDSSTTTAYMELKSLQFDDTAVYYCARRDYRFDMGFDYWGQGTTVTVSSASTKGPSVFPLAPCSRSTSESTAALGCLVKDYFPEPVTVSWNSGALTSGVHTFPAVLQSSGLYSLSSVVTVPSSSLGTKTYTCNVDHKPSNTKVDKRVESKYGPPCPPCPAPEFEGGPSVFLFPPKPKDTLYITREPEVTCVVVDVSQEDPEVQFNWYVDGVEVHNAKTKPREEQFNSTYRVVSVLTVLHQDWLNGKEYKCKVSNKGLPSSIEKTISKAKGQPREPQVYTLPPSQEEMTKNQVSLSCAVKGFYPSDIAVEWESNGQPENNYKTTPPVLDSDGSFFLVSRLTVDKSRWQEGNVFSCSVMHEALHNHYTQKSLSLSLG
light: EIVLTQSPATLSLSPGERATLSCRASKGVSTSGYSYLHWYQQKPGQAPRLLIYLASYLESGVPARFSGSGSGTDFTLTISSLEPEDFAVYYCQHSRDLPLTFGGGTKVEIKRTVAAPSVFIFPPSDEQLKSGTASVVCLLNNFYPREAKVQWKVDNALQSGNSQESVTEQDSKDSTYSLSSTLTLSKADYEKHKVYACEVTHQGLSSPVTKSFNRGEC
